Test results from patent publication US20210324096A1 (Genmab, published 2021).

Tests used:
[1] = target: T1, murine (Mus musculus) DR5, full-length (mouse, UniProt Q9QZM4 53-381); assay: flow cytometry on transfected CHO cells (FIG. 5D)
T1 construct: also called mouse DR5

[2] = target: T2, DR5ECD-FcHistag (human); assay: crossblock sandwich ELISA, antibody coated, competitor IgG1-hDR5-01-E430G
T2 construct: 453 is the counted length of the printed entry; also called DR5ECD-FcHisCtag; DRSECD-FcHistag

[3] = target: T3, cynomolgus monkey DR5 protein with deletion of amino acids 185-213 and death domain loss-of-function mutation … (cynomolgus monkey (Macaca fascicularis)); assay: flow cytometry on cynomolgus DR5-transfected CHO cells, four experiments (SD 0.084)
T3 construct: Transiently expressed on CHO cells; also called Cyno DR5Mfdel-K420N; cynomolgus DR5-transfected CHO
T3 chain: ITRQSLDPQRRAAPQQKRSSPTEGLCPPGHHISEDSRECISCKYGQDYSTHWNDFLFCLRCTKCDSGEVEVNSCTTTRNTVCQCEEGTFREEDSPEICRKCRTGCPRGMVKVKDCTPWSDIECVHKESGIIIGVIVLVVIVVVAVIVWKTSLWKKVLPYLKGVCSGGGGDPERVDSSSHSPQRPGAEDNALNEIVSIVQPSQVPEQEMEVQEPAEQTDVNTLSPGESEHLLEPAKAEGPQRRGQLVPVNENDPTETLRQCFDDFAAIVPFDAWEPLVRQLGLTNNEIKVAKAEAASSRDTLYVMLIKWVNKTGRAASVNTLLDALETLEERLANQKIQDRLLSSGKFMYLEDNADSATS

[4] = target: T4, human DR5 (death receptor 5), full-length (human, UniProt O14763 56-440); assay: flow cytometry on HCT 116 cells
T4 construct: also called TRAILR2; CD262

[5] = target: T2, DR5ECD-FcHistag; assay: crossblock sandwich ELISA, antibody coated, competitor IgG1-DR5-chTRA8-F405L
[6] = target: T2, DR5ECD-FcHistag; assay: crossblock sandwich ELISA, antibody coated, competitor IgG1-DR5-CONA-K409R

B1: IgG1-hDR5-05-F405L (antibody, name in EU numbering)
heavy: not shown
light: DIQLTQSPSSLSASVGDRVTITCSASSSVSYMYWYQQKPGKAPKPWIYRTSNLASGVPSRFSGSGSGTDFTLTISSLQPEDFATYYCQQYHSYPPTFGGGTKVEIKRTVAAPSVFIFPPSDEQLKSGTASVVCLLNNFYPREAKVQWKVDNALQSGNSQESVTEQDSKDSTYSLSSTLTLSKADYEKHKVYACEVTHQGLSSPVTKSFNRGEC
notes: IgG1,kappa; F405L is counted by EU numbering, not on the entry; also called humanized DR5-05
binding result [1]: no binding (tested: 10 µg/mL)

B2: IgG1-hDR5-05-E430G (antibody)
heavy: not shown
light: DIQLTQSPSSLSASVGDRVTITCSASSSVSYMYWYQQKPGKAPKPWIYRTSNLASGVPSRFSGSGSGTDFTLTISSLQPEDFATYYCQQYHSYPPTFGGGTKVEIKRTVAAPSVFIFPPSDEQLKSGTASVVCLLNNFYPREAKVQWKVDNALQSGNSQESVTEQDSKDSTYSLSSTLTLSKADYEKHKVYACEVTHQGLSSPVTKSFNRGEC
notes: IgG1,kappa
binding result [2]: binds
EC50 [3]: 0.17 µg/mL

B3: IgG1-hDR5-05-N55D-F405L (antibody, V domains shown)
VH: QVQLVQSGAEVKKPGASVKVSCKASGFNIKDTHMHWVRQAPGQRLEWIGRIDPADGNTEYDQKFQGRVTITVDTSASTAYMELSSLRSEDTAVYYCARWGTNVYFAYWGQGTLVTVSS
VL: DIQLTQSPSSLSASVGDRVTITCSASSSVSYMYWYQQKPGKAPKPWIYRTSNLASGVPSRFSGSGSGTDFTLTISSLQPEDFATYYCQQYHSYPPTFGGGTKVEIKR
notes: IgG1,kappa; deamidation-mimicking variant
binding result [4]: binds

B4: IgG1-DR5-CONA-K409R (antibody, V domains shown)
VH: QVQLQESGPGLVKPSQTLSLTCTVSGGSISSGDYFWSWIRQLPGKGLECIGHIHNSGTTYYNPSLKSRVTISVDTSKKQFSLRLSSVTAADTAVYYCARDRGGDYYYGMDVWGQGTTVTVSS
VL: EIVLTQSPGTLSLSPGERATLSCRASQGISRSYLAWYQQKPGQAPSLLIYGASSRATGIPDRFSGSGSGTDFTLTISRLEPEDFAVYYCQQFGSSPWTFGQGTKVEIK
notes: Expressed as IgG1,kappa with K409R (EU); also called IgG1-CONA-K409R; conatumumab variant
binding result [5]: binds

B5: IgG1-DR5-chTRA8-F405L (antibody, name in EU numbering, V domains shown)
VH: EVMLVESGGGLVKPGGSLKLSCAASGFTFSSYVMSWVRQTPEKRLEWVATISSGGSYTYYPDSVKGRFTISRDNAKNTLYLQMSSLRSEDTAMYYCARRGDSMITTDYWGQGTTLTVSS
VL: DIVMTQSHKFMSTSVGDRVSITCKASQDVGTAVAWYQQKPGQSPKLLIYWASTRHTGVPDRFTGSGSGTDFTLTISNVQSEDLADYFCQQYSSYRTFGGGTKLEIKR
notes: F405L is counted by EU numbering; also called IgG1-chTRA8-F405L
binding result [6]: binds
